In patent publication US20230303994:

B1: trypsin variant SEQ ID NO: 121 (protein)
chain: IVGGYTCAANSIPYQVSLNSGSHRCGGSLINSQWVVSAAHCYKSRIQVRLGEHNIDVLEGNEQFINAAKIITHPNFNGNTLDNDIMLIKLSSPATLNSRVATVSLPRSCAAAGTECLISGWGNTKSSGSSYPSLLQCLKAPVLSDSSCKSSYPGQITGNMICVGFLEGGIDACQGDSGGPVVCNGQLQGIVSSGYGCAQKNKPGVYTKVCNYVNWIQQTIAAN
B2: trypsin variant SEQ ID NO: 129 (protein)
chain: IVGGYTCAANSIPYQVSLNSGSHRCGGSLINSQWVVSAAHCYKSRIQVRLGEHNIDVLEGNEQFINAAKIITHPNFNGNTLDNDIMLIKLSSPATLNSRVATVSLPRSCAAAGTECLISGWGNTKSSGSSYPSLLQCLKAPVLSDSSCKSSYPGQITGNMICVGFLEGGKDACQGDSGGPVVCNGQLQGIVSNGYGCAQKNKPGVYTKVCNYVNWIQQTIAAN
B3: trypsin variant SEQ ID NO: 15 (protein)
chain: IVGGYTCAANSIPYQVSLNSGSHRCGGSLINSQWVVSAAHCYKSRIQVRLGEHNIDVLEGNEQFINAAKIITHPNFNGNTLDNDIMLIKLSSPATLNSRVATVSLPRSCAAAGTECLISGWGNTASSGSSYPSLLQCLKAPVLSDSSCKSSYPGQITGNMICVGFLEGGKDACQGDSGGPVVCNGQLQGIVSSGYGCAQKNKPGVYTKVCNYVNWIQQTIAAN
B4: trypsin variant SEQ ID NO: 27 (protein)
chain: IVGGYTCAANSIPYQVSLNSGSHRCGGSLINSQWVVSAAHCYKSRIQVRLGEHNIDVLEGNEQFINAAKIITHPNFNGNTLDNDIMLIKLSSPATLNSRVATVSLPRSCAAAGTECLISGWGNTKSSGSSYPSLLQCLKAPVLSDSSCKSSYPGQITGNMICVGFLEGGNDACQGDSGGPVVCNGQLQGIVSSGYGCAQKNKPGVYTKVCNYVNWIQQTIAAN
B5: trypsin variant SEQ ID NO: 17 (protein)
chain: IVGGYTCAANSIPYQVSLNSGSHRCGGSLINSQWVVSAAHCYKSRIQVRLGEHNIDVLEGNEQFINAAKIITHPNFNGNTLDNDIMLIKLSSPATLNSRVATVSLPRSCAAAGTECLISGWGNTYSSGSSYPSLLQCLKAPVLSDSSCKSSYPGQITGNMICVGFLEGGKDACQGDSGGPVVCNGQLQGIVSSGYGCAQKNKPGVYTKVCNYVNWIQQTIAAN
B6: trypsin variant SEQ ID NO: 126 (protein)
chain: IVGGYTCAANSIPYQVSLNSGSHECGGSLINSQWVVSAAHCYKSRIQVRLGEHNIDVLEGNEQFINAAKIITHPNFNGNTLDNDIMLIKLSSPATLNSRVATVSLPRSCAAAGTECLISGWGNTKSSGSSYPSLLQCLKAPVLSDSSCKSSYPGQITGNMICVGFLEGGKDACQGDSGGPVVCNGQLQGIVSSGYGCAQKNKPGVYTKVCNYVNWIQQTIAAN
B7: trypsin variant SEQ ID NO: 29 (protein)
chain: IVGGYTCAANSIPYQVSLNSGSHLCGGSLINSQWVVSAAHCYKSRIQVRLGEHNIDVLEGNEQFINAAKIITHPNFNGNTLDNDIMLIKLSSPATLNSRVATVSLPRSCAAAGTECLISGWGNTKSSGSSYPSLLQCLKAPVLSDSSCKSSYPGQITGNMICVGFLEGGKDACQGDSGGPVVCNGQLQGIVSSGYGCAQKNKPGVYTKVCNYVNWIQQTIAAN
B8: trypsin variant SEQ ID NO: 124 (protein)
chain: IVGGYTCAANSIPYQVSLNSGSHRCGGSLINSQWVVSAAHCYKSRIQVRLGEHNIDVLEGNEQFINAAKIITHPNFNGNTLDNDIMLIKLSSPATLNSRVATVSLPRSCAAAGTECLISGWGNTKSSGSSKPSLLQCLKAPVLSDSSCKSSYPGQITGNMICVGFLEGGKDACQGDSGGPVVCNGQLQGIVSSGYGCAQKNKPGVYTKVCNYVNWIQQTIAAN
B9: trypsin variant SEQ ID NO: 28 (protein)
chain: IVGGYTCAANSIPYQVSLNSGSHVCGGSLINSQWVVSAAHCYKSRIQVRLGEHNIDVLEGNEQFINAAKIITHPNFNGNTLDNDIMLIKLSSPATLNSRVATVSLPRSCAAAGTECLISGWGNTKSSGSSYPSLLQCLKAPVLSDSSCKSSYPGQITGNMICVGFLEGGKDACQGDSGGPVVCNGQLQGIVSSGYGCAQKNKPGVYTKVCNYVNWIQQTIAAN
B10: trypsin variant SEQ ID NO: 26 (protein)
chain: IVGGYTCAANSIPYQVSLNSGSHRCGGSLINSQWVVSAAHCYKSRIQVRLGEHNIDVLEGNEQFINAAKIITHPNFNGNTLDNDIMLIKLSSPATLNSRVATVSLPRSCAAAGTECLISGWGNTKSSGSSYPSLLQCLKAPVLSDSSCKSSYPGQITGNMICVGFLEGGGDACQGDSGGPVVCNGQLQGIVSSGYGCAQKNKPGVYTKVCNYVNWIQQTIAAN
B11: trypsin variant SEQ ID NO: 130 (protein)
chain: IVGGYTCAANSIPYQVSLNSGSHRCGGSLINSQWVVSAAHCYKSRIQVRLGEHNIDVLEGNEQFINAAKIITHPNFNGNTLDNDIMLIKLSSPATLNSRVATVSLPRSCAAAGTECLISGWGNTKSSGSSYPSLLQCLKAPVLSDSSCKSSYPGQITGNMICVGFLEGGKDACQGDSGGPVVCNGQLQGIVSCGYGCAQKNKPGVYTKVCNYVNWIQQTIAAN
B12: trypsin variant SEQ ID NO: 21 (protein)
chain: IVGGYTCAANSIPYQVSLNSGSHRCGGSLINSQWVVSAAHCYKSRIQVRLGEHNIDVLEGNEQFINAAKIITHPNFNGNTLDNDIMLIKLSSPATLNSRVATVSLPRSCAAAGTECLISGWGNTHSSGSSYPSLLQCLKAPVLSDSSCKSSYPGQITGNMICVGFLEGGKDACQGDSGGPVVCNGQLQGIVSSGYGCAQKNKPGVYTKVCNYVNWIQQTIAAN
B13: trypsin variant SEQ ID NO: 16 (protein)
chain: IVGGYTCAANSIPYQVSLNSGSHRCGGSLINSQWVVSAAHCYKSRIQVRLGEHNIDVLEGNEQFINAAKIITHPNFNGNTLDNDIMLIKLSSPATLNSRVATVSLPRSCAAAGTECLISGWGNTGSSGSSYPSLLQCLKAPVLSDSSCKSSYPGQITGNMICVGFLEGGKDACQGDSGGPVVCNGQLQGIVSSGYGCAQKNKPGVYTKVCNYVNWIQQTIAAN
B14: trypsin variant SEQ ID NO: 20 (protein)
chain: IVGGYTCAANSIPYQVSLNSGSHRCGGSLINSQWVVSAAHCYKSRIQVRLGEHNIDVLEGNEQFINAAKIITHPNFNGNTLDNDIMLIKLSSPATLNSRVATVSLPRSCAAAGTECLISGWGNTESSGSSYPSLLQCLKAPVLSDSSCKSSYPGQITGNMICVGFLEGGKDACQGDSGGPVVCNGQLQGIVSSGYGCAQKNKPGVYTKVCNYVNWIQQTIAAN
B15: trypsin variant SEQ ID NO: 125 (protein)
chain: IVGGYTCAANSIPYQVSLNSGSHDCGGSLINSQWVVSAAHCYKSRIQVRLGEHNIDVLEGNEQFINAAKIITHPNFNGNTLDNDIMLIKLSSPATLNSRVATVSLPRSCAAAGTECLISGWGNTKSSGSSYPSLLQCLKAPVLSDSSCKSSYPGQITGNMICVGFLEGGKDACQGDSGGPVVCNGQLQGIVSSGYGCAQKNKPGVYTKVCNYVNWIQQTIAAN
B16: trypsin variant SEQ ID NO: 128 (protein)
chain: IVGGYTCAANSIPYQVSLNSGSHRCGGSLINSQWVVSAAHCYKSRIQVRLGEHNIDVLEGNEQFINAAKIITHPNFNGNTLDNDIMLIKLSSPATLNSRVATVSLPRSCAAAGTECLISGWGNTKSSGSSPPSLLQCLKAPVLSDSSCKSSYPGQITGNMICVGFLEGGKDACQGDSGGPVVCNGQLQGIVSSGYGCAQKNKPGVYTKVCNYVNWIQQTIAAN
B17: trypsin variant SEQ ID NO: 22 (protein)
chain: IVGGYTCAANSIPYQVSLNSGSHRCGGSLINSQWVVSAAHCYKSRIQVRLGEHNIDVLEGNEQFINAAKIITHPNFNGNTLDNDIMLIKLSSPATLNSRVATVSLPRSCAAAGTECLISGWGNTLSSGSSYPSLLQCLKAPVLSDSSCKSSYPGQITGNMICVGFLEGGKDACQGDSGGPVVCNGQLQGIVSSGYGCAQKNKPGVYTKVCNYVNWIQQTIAAN
B18: trypsin variant SEQ ID NO: 123 (protein)
chain: IVGGYTCAANSIPYQVSLNSGSHGCGGSLINSQWVVSAAHCYKSRIQVRLGEHNIDVLEGNEQFINAAKIITHPNFNGNTLDNDIMLIKLSSPATLNSRVATVSLPRSCAAAGTECLISGWGNTKSSGSSYPSLLQCLKAPVLSDSSCKSSYPGQITGNMICVGFLEGGKDACQGDSGGPVVCNGQLQGIVSSGYGCAQKNKPGVYTKVCNYVNWIQQTIAAN
B19: trypsin variant SEQ ID NO: 122 (protein)
chain: IVGGYTCAANSIPYQVSLNSGSHRCGGSLINSQWVVSAAHCYKSRIQVRLGEHNIDVLEGNEQFINAAKIITHPNFNGNTLDNDIMLIKLSSPATLNSRVATVSLPRSCAAAGTECLISGWGNTKSSGSSYPSLLQCLKAPVLSDSSCKSSYPGQITGNMICVGFLEGGFDACQGDSGGPVVCNGQLQGIVSSGYGCAQKNKPGVYTKVCNYVNWIQQTIAAN
B20: trypsin variant SEQ ID NO: 23 (protein)
chain: IVGGYTCAANSIPYQVSLNSGSHRCGGSLINSQWVVSAAHCYKSRIQVRLGEHNIDVLEGNEQFINAAKIITHPNFNGNTLDNDIMLIKLSSPATLNSRVATVSLPRSCAAAGTECLISGWGNTQSSGSSYPSLLQCLKAPVLSDSSCKSSYPGQITGNMICVGFLEGGKDACQGDSGGPVVCNGQLQGIVSSGYGCAQKNKPGVYTKVCNYVNWIQQTIAAN
B21: trypsin variant SEQ ID NO: 127 (protein)
chain: IVGGYTCAANSIPYQVSLNSGSHRCGGSLINSQWVVSAAHCYKYRIQVRLGEHNIDVLEGNEQFINAAKIITHPNFNGNTLDNDIMLIKLSSPATLNSRVATVSLPRSCAAAGTECLISGWGNTKSSGSSYPSLLQCLKAPVLSDSSCKSSYPGQITGNMICVGFLEGGKDACQGDSGGPVVCNGQLQGIVSSGYGCAQKNKPGVYTKVCNYVNWIQQTIAAN

Molecular target: pre-pro-human insulin

Protein	Activity PPI cleavage	Selectivity
B1	yes	4.6%
B2	yes	44.8%
B3	yes	>90%
B4	yes	>80%
B5	yes	>80%
B6	yes	7.2%
B7	yes	>90%
B8	yes	27.6%
B9	yes	>90%
B10	yes	>80%
B11	yes	33.8%
B12	yes	>90%
B13	yes	>90%
B14	yes	>90%
B15	yes	12.2%
B16	yes	57.1%
B17	yes	>90%
B18	yes	60.7%
B19	yes	59.4%
B20	yes	>90%
B21	yes	20.5%
